# From patent US20220056091A1
# Target: His-tagged human IL-18BP (human) (UniProt O95998)
# Assay: alphaLISA of free IL-18BP
# Sequence of His-tagged human IL-18BP (human) (O95998 31-194): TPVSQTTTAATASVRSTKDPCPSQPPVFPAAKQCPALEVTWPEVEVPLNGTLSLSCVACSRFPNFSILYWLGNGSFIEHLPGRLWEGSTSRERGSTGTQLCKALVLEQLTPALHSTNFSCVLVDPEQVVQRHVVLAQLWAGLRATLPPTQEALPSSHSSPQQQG
# Sequence of IL-18 polypeptide of SEQ ID NO: 1 (native sequence, human IL-18 37-193) (Q14116 37-193): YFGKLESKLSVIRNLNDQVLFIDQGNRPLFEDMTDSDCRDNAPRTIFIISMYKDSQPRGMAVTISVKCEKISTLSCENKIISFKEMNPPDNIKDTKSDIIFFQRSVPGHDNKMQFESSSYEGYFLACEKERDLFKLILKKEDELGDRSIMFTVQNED
row,Substance,Kd
1,"Modified IL-18 polypeptide of SEQ ID NO: 15 (C38S, C68S, C76S, C127S) (from UniProt Q14116 37-193) (ligand)",0.03 nM
2,Modified IL-18 polypeptide of SEQ ID NO: 4 (K53A) (from UniProt Q14116 37-193) (ligand),514 nM
3,Modified IL-18 polypeptide of SEQ ID NO: 19 (T63A) (from UniProt Q14116 37-193) (ligand),2.59 nM
4,"Modified IL-18 polypeptide of SEQ ID NO: 22 (E06K, K53A, C38S, C68S, C76S, C127S, K70C) (from UniProt Q14116 37-193) (ligand)",446 nM
5,Modified IL-18 polypeptide of SEQ ID NO: 5 (S55A) (from UniProt Q14116 37-193) (ligand),10.7 nM
6,"Modified IL-18 polypeptide of SEQ ID NO: 7 (E06K, K53A) (from UniProt Q14116 37-193) (ligand)",130 nM
7,"Modified IL-18 polypeptide of SEQ ID NO: 23 (K53A, T63A, C38S, C68S, C76S, C127S, K70C) (from UniProt Q14116 37-193) (ligand)",913 nM
8,"Modified IL-18 polypeptide of SEQ ID NO: 20 (E06K, T63A) (from UniProt Q14116 37-193) (ligand)",0.83 nM
9,"Modified IL-18 polypeptide of SEQ ID NO: 16 (C38S, C68S, C76S, C127S, K70C) (from UniProt Q14116 37-193) (ligand)",0.21 nM
10,"Modified IL-18 polypeptide of SEQ ID NO: 3 (Y01G, F02A, E06K, M51G, K53A, D54A, S55A, T63A) (from UniProt Q14116 37-193) (ligand)",969 nM
11,"Modified IL-18 polypeptide of SEQ ID NO: 21 (K53A, T63A) (from UniProt Q14116 37-193) (ligand)",198 nM
12,"Modified IL-18 polypeptide of SEQ ID NO: 71 (E6K, C38S, K53A) (from UniProt Q14116 37-193) (ligand)",50.2 nM
13,"Modified IL-18 polypeptide of SEQ ID NO: 70 (E6K, K53A, C38S, C76S, C127S) (from UniProt Q14116 37-193) (ligand)",436 nM
14,"IL-18 polypeptide of SEQ ID NO: 1 (native sequence, human IL-18 37-193) (from UniProt Q14116 37-193) (ligand)",0.67 nM
15,Modified IL-18 polypeptide of SEQ ID NO: 6 (E06K) (from UniProt Q14116 37-193) (ligand),0.13 nM
16,"Modified IL-18 polypeptide of SEQ ID NO: 10 (E06K, K53A, S55A, T63A) (from UniProt Q14116 37-193) (ligand)",822 nM
17,"Modified IL-18 polypeptide of SEQ ID NO: 8 (E06K, S55A) (from UniProt Q14116 37-193) (ligand)",12.3 nM
18,"Modified IL-18 polypeptide of SEQ ID NO: 18 (E06K, K53A, T63A) (from UniProt Q14116 37-193) (ligand)",340 nM
19,"Modified IL-18 polypeptide of SEQ ID NO: 71 with a 30 kDa PEG attached at residue C68 (E6K, C38S, K53A, C68-30kDPEG) (from UniProt Q14116 37-193) (ligand)",59.1 nM
20,"Modified IL-18 polypeptide of SEQ ID NO: 9 (K53A, S55A) (from UniProt Q14116 37-193) (ligand)",500 nM
